According to paper PMC9500918, “Extended N-Terminal Acetyltransferase Naa50 in Filamentous Fungi Adds to Naa50 Diversity” (International Journal of Molecular Sciences, 2022):
Residue numbers refer to the chain shown, from its start. Names may count otherwise.

What was measured:
Assay in all cases: colorimetric DTNB acetylation assay, Michaelis-Menten
Settings in all cases: 1.5 mM MVNALE peptide, 30 °C, reaction buffer pH 7.5
[1] = substrate: CC(=O)SCCNC(=O)CCNC(=O)[C@H](O)C(C)(C)COP(=O)(O)OP(=O)(O)OC[C@H]1O[C@@H](n2cnc3c(N)ncnc32)[C@H](O)[C@@H]1OP(=O)(O)O; format: biochemical, Thermochaetoides thermophila
From the text: colorimetric DTNB acetylation assay, Michaelis-Menten on CtNaa50_82-445 (ΔN)

[2] = substrate: CC(=O)SCCNC(=O)CCNC(=O)[C@H](O)C(C)(C)COP(=O)(O)OP(=O)(O)OC[C@H]1O[C@@H](n2cnc3c(N)ncnc32)[C@H](O)[C@@H]1OP(=O)(O)O; format: biochemical, Thermochaetoides thermophila; remark: listed apart in the source
From the text: colorimetric DTNB acetylation assay, Michaelis-Menten on CtNaa50_82-289 (GNAT)

[3] = substrate: CC(=O)SCCNC(=O)CCNC(=O)[C@H](O)C(C)(C)COP(=O)(O)OP(=O)(O)OC[C@H]1O[C@@H](n2cnc3c(N)ncnc32)[C@H](O)[C@@H]1OP(=O)(O)O; format: biochemical, Thermochaetoides thermophila; remark: listed apart in the source
[4] = substrate: CC(=O)SCCNC(=O)CCNC(=O)[C@H](O)C(C)(C)COP(=O)(O)OP(=O)(O)OC[C@H]1O[C@@H](n2cnc3c(N)ncnc32)[C@H](O)[C@@H]1OP(=O)(O)O; format: biochemical, Thermochaetoides thermophila; remark: listed apart in the source
From the text: colorimetric DTNB acetylation assay, Michaelis-Menten on CtNaa50_1-289 (ΔC)

[5] = substrate: CC(=O)SCCNC(=O)CCNC(=O)[C@H](O)C(C)(C)COP(=O)(O)OP(=O)(O)OC[C@H]1O[C@@H](n2cnc3c(N)ncnc32)[C@H](O)[C@@H]1OP(=O)(O)O; format: biochemical, Neurospora crassa
From the text: colorimetric DTNB acetylation assay, Michaelis-Menten on NcNaa50_93-287 (GNAT)

B1: CtNaa50_82-445 (ΔN) (Thermochaetoides thermophila DSM 1495) (protein)
chain: LPSGASIVPLAQEHIPALRRINSLLLPVAYPDSFYHKALDPLASGLFSRAILWQDTNADPPKVVGGLICRLEPNPFLSVTGEPTPVQLPADQPQRAPQAPKDTPFHAIYIQSLALLSPYRSLGLAAAALDHIIATAAVLPAAGSNIDARTIYAHVWTENEEGLKWYESRGFVKEGGEPVKGYYFKLRPDTAWIVRRHIGESAKLNDVVSQPQPQPQQQLQQQPAVDIAPTATSVLAAAVNLPPITSTPPPPSTGSKLPTSNTSTLASRPPPPLRSTSSSTSSATSLSYQNTRPPTEWNDIPPDMVAGPPIAARGRRVTAAAASDPAANGCSGTGSGASSRSASAAAGTGKKRKGRDYPTAAFGN
notes: N-terminal deletion, residues 82-445, E. coli
Km [1]: 41.2 ± 6.1 µM | kcat [1]: 0.398 ± 0.0167 s⁻¹ | kcat/Km [1]: 9670 ± 1500 M⁻¹ s⁻¹

B2: CtNaa50_82-289 (GNAT) (Thermochaetoides thermophila DSM 1495) (protein)
chain: LPSGASIVPLAQEHIPALRRINSLLLPVAYPDSFYHKALDPLASGLFSRAILWQDTNADPPKVVGGLICRLEPNPFLSVTGEPTPVQLPADQPQRAPQAPKDTPFHAIYIQSLALLSPYRSLGLAAAALDHIIATAAVLPAAGSNIDARTIYAHVWTENEEGLKWYESRGFVKEGGEPVKGYYFKLRPDTAWIVRRHIGESAKLNDVV
notes: GNAT domain, residues 82-289, C-terminal His6 kept, E. coli; full-length 445 residues; one molecule per asymmetric unit
Km [2]: 52.7 ± 8.6 µM | kcat [2]: 0.607 ± 0.03 s⁻¹ | kcat/Km [2]: 11500 ± 2000 M⁻¹ s⁻¹

B3: CtNaa50_82-289 (GNAT) (Thermochaetoides thermophila DSM 1495; H235A) (protein)
chain: B2 chain with H154A
notes: as for B2
Km [2]: 15.3 ± 3.1 µM | kcat [2]: 0.0233 ± 0.00167 s⁻¹ | kcat/Km [2]: 1500 ± 333 M⁻¹ s⁻¹

B4: CtNaa50_82-289 (GNAT) (Thermochaetoides thermophila DSM 1495; Y190F) (protein)
chain: B2 chain with Y109F
notes: as for B2
Km [2]: 22.0 ± 4.0 µM | kcat [2]: 0.0933 ± 0.005 s⁻¹ | kcat/Km [2]: 4330 ± 833 M⁻¹ s⁻¹

B5: CtNaa50_1-289/CtDLC1 complex (Thermochaetoides thermophila DSM 1495) (protein)
chain: MSASRQASIKSFFQPRGLPTHNTTFSSKTPPTDRATQTTTPPPVPPPAPAPPSHQPAAPEPITISVRLPPGGVPNLPSPPSLPSGASIVPLAQEHIPALRRINSLLLPVAYPDSFYHKALDPLASGLFSRAILWQDTNADPPKVVGGLICRLEPNPFLSVTGEPTPVQLPADQPQRAPQAPKDTPFHAIYIQSLALLSPYRSLGLAAAALDHIIATAAVLPAAGSNIDARTIYAHVWTENEEGLKWYESRGFVKEGGEPVKGYYFKLRPDTAWIVRRHIGESAKLNDVV
notes: CtNaa50 1-289 (S. cerevisiae, His-tag cut by TEV) co-purified with untagged CtDLC1 (E. coli); with putative dynein light chain 1 protein
Km [3]: 30.4 ± 6.3 µM | kcat [3]: 21.4 ± 1.2 min⁻¹

B6: CtNaa50_1-289 (ΔC) (Thermochaetoides thermophila DSM 1495) (protein)
chain: B5 chain
notes: C-terminal deletion, residues 1-289, N-terminal His-tag removed by TEV, S. cerevisiae
Km [4]: 31.9 ± 4.4 µM | kcat [4]: 0.272 ± 0.01 s⁻¹ | kcat/Km [4]: 8500 ± 1170 M⁻¹ s⁻¹

B7: NcNaa50_93-287 (GNAT) (Neurospora crassa OR74A) (protein)
chain: SQANIVAVAEHHIAALRRINSLLLQVAYPDAFYAKVLEPLASGLFSRVILWSDDPTSEPKVIGGVVCRLEPNPFLDPNGQPQAPRIQQNQPGPSAPIDYPYHAIYIQSLALLSPYRSLGLAAAALEHIIASASILPAAGSTINVRTIYAHVWTENEEGLQWYGQRGFRTEGRDPVRGYYFKLRPDTAWIVRRDIG
notes: GNAT domain, residues 93-287, C-terminal His6, E. coli; full-length 494 residues
Km [5]: 146.9 ± 12.1 µM | kcat [5]: 1.6 ± 0.05 s⁻¹ | kcat/Km [5]: 10800 ± 1000 M⁻¹ s⁻¹
